Measured values as given in US20060177448A1, “Inhibiting HER2 shedding with matrix metalloprotease antagonists” (Genentech, Inc., priority 2005, published 2006).

Tested on: SKBR-3 cells
Assay: HER2 ECD ELISA of conditioned media (HER2 shedding), SKBR-3 cells
Type: cell-based, human
Details: 1 μg/ml
Method: BT 474, MCF-7, and SKBR-3 cells were maintained in high-glucose DMEM:Ham's F12 (50:50) supplemented with 10% heat-inactivated FBS and 2 mM L-Glutamine. […] Cell lines were maintained at 37° C. in a humidified incubator supplied with 5% CO2. BT 474 and SKBR-3 cells were transiently transfected with constructs as described by electroporation using kit V according to the manufacturer's instructions (AMAXA™).
Serum was diluted 1:50 using assay buffer (PBS/0.5% BSA, 0.05% TWEEN® 20/10 ppm PROCLIN® 300/0.2% BGG/0.25% CHAPS/0.15 M NaCl/5mM EDTA (pH 7.4) followed by additional 1:2 serial dilutions. Shed HER2 was captured using a goat anti-HER2 polyclonal antibody (Genentech) onto NUNC® Maxisorp plates and detected using a biotin-conjugated rabbit anti-HER2 polyclonal antibody (Genentech) followed by a AMDEX™-strepavidin-horseradish peroxidase antibody (Amersham Pharmacia Biotech) following a procedure described previously (Sias et al., J. Immunol. Meth. 109:219-27 (1990)). For cell culture experiments, cells were treated as indicated and conditioned media was collected and diluted in assay buffer serially 1:2. The concentration of shed HER2 in serum or in conditioned media was determined from a four-parameter fit of a standard curve using purified recombinant HER2 ECD protein (Genentech) as a standard.
The pSIREN shRNA construct(s) or vector alone were transiently transfected into SKBR-3 and BT 474 cells using AMAXA™ kit V following manufacturer's recommendations. After 48 hours, conditioned media was collected and assayed for shed HER2 by HER2 ELISA and the cells were lysed directly on the plate using 2×Sample buffer.

B1: Timp-3: naturally occurring peptides that regulate metalloprotease activity (protein, UniProt P35625 24-211, looked up)
Metalloproteinase inhibitor 3: CTCSPSHPQDAFCNSDIVIRAKVVGKKLVKEGPFGTLVYTIKQMKMYRGFTKMPHVQYIHTEASESLCGLKLEVNKYQYLLTGRVYDGKMYTGLCNFVERWDQLTLSQRKGLNYRYHLGCNCKIKSCYYLPCFVTSKNECLWTDMLSNFGYPGYQSKHYACIRQKGGYCSWYRGWAPPDKSIINATDP
In the case of B1, the “HER2 ECD levels in conditioned media” value is reported as “reduced HER2 ECD levels”.
